Assay results published in patent US20200308299A1, “ANTI-GPC-1 ANTIBODY” (National University Corporation Kochi University, priority 2017, published 2020).

B1: clone 01a033 (antibody)
heavy: QVQLKQSGPELVKPGASVKISCKASGYSFTGYYMHWVKQSPEKSLEWIGEINPSTGDTTYNQKFKAKATLTVDKSSSTAYMQLKSLTSEDSAVYYCAREKRDDGVFAYWGQGTLVTVSSAKTTAPSVYPLAPVCGDTTGSSVTLGCLVKGYFPEPVTLTWNSGSLSSGVHTFPAVLQSDLYTLSSSVTVTSSTWPSQSITCNVAHPASSTKVDKKIEPRGPTIKPCPPCKCPAPNLLGGPSVFIFPPKIKDVLMISLSPIVTCVVVDVSEDDPDVQISWFVNNVEVHTAQTQTHREDYNSTLRVVSALPIQHQDWMSGKEFKCKVNNKDLPAPIERTISKPKGSVRAPQVYVLPPPEEEMTKKQVTLTCMVTDFMPEDIYVEWTNNGKTELNYKNTEPVLDSDGSYFMYSKLRVEKKNWVERNSYSCSVVHEGLHNHHTTKSFSRTPGK
light: DIVMSQSPKSMSMSVGERVALSCKASENVGTYVSWYQQKPEQSPKLLIYGASNRYTGVPDRFTGSGSATDFTLTISSVQAEDLADYYCGQSYSYPLTFGAGTKLELKRADAAPTVSIFPPSSEQLTSGGASVVCFLNNFYPKDINVKWKIDGSERQNGVLNSWTDQDSKDSTYSMSSTLTLTKDEYERHNSYTCEATHKTSTSPIVKSFNRNEC
B2: GPC1 ADC (conjugate)
heavy: B1 heavy
light: B1 light

What was measured:
LLC-control-7 cells = test: In vitro ADC assay, LLC-control-7 cells; assay type: cell-based; settings: does not express mouse GPC-1, 72 hours
Procedure: An mGPC1 expression vector (pcDNA3.1-mGPC1) and control vector (pcDNA3.1V5/His) were transfected using Lipofectamine® 2000 into LLC cell strain (mouse lung cancer cell strain). Cells subjected to gene transfer were selected by adding G418 to a medium, and the formed colony was picked up. The expression of mGPC1 was analyzed by FACS using anti-GPC1 antibody clone 01a033. LLC-mGPC1-16 cells were established as an mGPC1 stable expression strain, and LLC-control-7 was established as the control.
Preparation of a conjugate of mouse anti-glypican-1 mAb (01a033), mouse IgG2a (biolegend #400224) as a control, and mc-vc-PAB-MMAF was commissioned to MORADEC. An anticancer agent was conjugated to a cysteine residue via a cleavable linker. The DAR (drug-antibody ratio) was as follows. […]
RPMI1640+10% FBS+100 U/ml penicillin+100 μg/ml streptomycin was used as the medium. […] (3) After 72 hours of culturing, CellTiter-Glo™ Luminescence Cell Viability Assay reagent (Promega) was added and mixed at 100 μL/well. (4) Measurements were taken with a plate reader. […]
The IC50 values were calculated from the following equation (Hossain M M, Hosono-Fukao T, Tang R, Sugaya N, van Kuppevelt T H, Jenniskens G J, Kimata K, Rosen S D, Uchimura K (2010) Direct detection of HSulf-1 and HSulf-2 activities on extracellular heparan sulphate and their inhibition by PI-88. Glycobiology […]: 175-186.) […]

TE14 cells = test: ADC assay combining anti-GPC-1 antibody and MMAF binding secondary antibody, TE14 cells; assay type: cell-based
Procedure, shortened: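 TE14 […] cells (2000/well, RPMI1640 + 10% FBS) exposed to anti-GPC1 primary antibody (final 0–1.0 nM) plus 2 μg/ml MMAF-conjugated anti-mouse Fc Fab secondary for 6 days at 37° C, 5% CO2. Viability measured by CellTiter-Glo ATP luminescence.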

TE8 cells = test: ADC assay combining anti-GPC-1 antibody and MMAF binding secondary antibody, TE8 cells; assay type: cell-based; settings: primary antibody plus MMAF secondary antibody
ME180 cell strain = test: In vivo efficacy test on GPC1 ADC using cervical cancer cell strain ME180 in SCID mice; design: species or system mouse
Procedure: Specifically, 1.0×10^6 cells of ME180 cell strain were subcutaneously grafted into female SCID mice. […] The tumor volume and body weight were measured on day 0, day 4, day 8, day 12, day 16, day 20, day 24, day 28, and day 32.
After subcutaneous tumorigenesis of ME180, (1) PBS, (2) control ADC at 10 mg/kg, and (3) GPC1-ADC at 10 mg/kg were administered once into the tail vein. The tumor was extracted after 24 hours. After deparaffinization of a section of a paraffin embedded tissue, the slice was dehydrated with alcohol. Immunohistochemical staining on Phospho-Histon H3 (Ser10) was performed by using an anti-Phospho-Histon H3 (Ser10) antibody (Cell Signaling Technology: #9701) and ChemMate Envision kit HRP 500T (Dako: K5007).

HeLa cells = test: In vitro ADC assay, HeLa cells; assay type: cell-based; settings: 144 hours
Procedure: (§1) Preparation of a conjugate of mouse anti-Glypican-1 mAb (01a033), mouse IgG2a (biolegend #400224) as a control, and mc-vc-PAB-MMAF was commissioned to MORADEC. An anticancer agent was conjugated to a cysteine residue via a cleavable linker. The DAR (drug-antibody ratio) was as follows. GPC1-CL-MMAF DAR=3.8, mouse IgG2a-CL-MMAF DAR=4.1.
(§2) (1) The cells were seeded on Thermo Fisher Scientific's 96-well white plate (model no.: 136101) (90 μl cell suspension). RPMI1640+10% FBS+100 U/ml penicillin+100 μg/ml streptomycin was used as the medium. The cells were seeded in 60 wells, and 100 μL of medium was added to 36 wells, and cultured in a 5% CO2 incubator at 37° C. (2) The next day, 10 μL of ADC was added to the cells (total amount: 100 μL). (3) After 144 hours of culture, a CellTiter-Glo™ Luminescence Cell Viability Assay reagent (Promega) was added and mixed at 100 μL/well. (4) Measurements were taken with a plate reader. (5) Analysis was conducted with GraphPad Prism 6.
(§3) The IC50 values were calculated from the following equation (Hossain M M, Hosono-Fukao T, Tang R, Sugaya N, van Kuppevelt T H, Jenniskens G J, Kimata K, Rosen S D, Uchimura K (2010) Direct detection of HSulf-1 and HSulf-2 activities on extracellular heparan sulphate and their inhibition by PI-88. Glycobiology 20(2): 175-186.)
(§4) IC50=10^(Log [A][B]×(50−C)/(D−C)+Log [B]) […]

T3M4 cells = test: In vitro ADC assay, T3M4 cells; assay type: cell-based, human; settings: T3M4, 144 hours
Procedure: as §1, §2, §3, §4

[1] = Single dose safety test on GPC1 ADC in C57BL/6J mice
Procedure: A single dose (1 ml) of control PBS, control ADC (50 mg/kg), anti-GPC1 ADC (3 mg/kg), anti-GPC1 ADC (15 mg/kg), and anti-GPC1 ADC (50 mg/kg) was intraperitoneally administered on day 1 to a group of 4 male and 4 female C57BL/6J mice (8W). The mice were dissected after 7 days from administration.
*Blood collection (Blood cell count, biochemical test)

[2] = primary antibody plus MMAF secondary antibody
[3] = single ip dose, high dose administration group, not GPC1-ADC specific

Row | Molecule | effect of suppressing growth against LLC-control-7 (LLC-control-7 cells) | ADC activity (TE14 cells; primary antibody plus Fab-aMFc-CL-MMAF secondary antibody 2 μg/ml, 6 days) | EC50 values against TE14 cells (TE14 cells; [2]) | antitumor effect on TE14 (TE14 cells; [2]) | antitumor effect on TE8 (TE8 cells) | antitumor effect (tumor volume, tumor weight day 32) (ME180 cell strain; 1 mg/kg iv day 0, 4, 8, 12) | antitumor effect (tumor volume, tumor weight day 32) (ME180 cell strain; 3 mg/kg iv day 0, 4, 8, 12) | antitumor effect (tumor volume, tumor weight day 32) (ME180 cell strain; 10 mg/kg iv day 0, 4, 8, 12) | tumor volume (ME180 cell strain; 10 mg/kg iv day 0, 4, 8, 12) | change in the body weight (ME180 cell strain; any dosage tested (1, 3, 10 mg/kg)) | G2/M phase arrest in tumor tissue (Phospho-Histon H3 (Ser10) staining) (ME180 cell strain; single tail vein dose 10 mg/kg, tumor extracted after 24 hours) | effect of suppressing cell growth (HeLa cells) | effect of suppressing cell growth (T3M4 cells) | toxicity from the results of the hematological test ([1]; single ip dose) | anemia (hemoglobin) ([1]; single ip dose 50 mg/kg) | amylase ([1]; single ip dose 3, 15, 50 mg/kg) | platelet count ([1]; single ip dose 3, 15, 50 mg/kg) | change in the body weight ([1]; single ip dose, groups other than 50 mg/kg (3, 15 mg/kg), 7 days) | liver function (ALT) [1, 3] | white blood cells [1, 3]
1 | B1 | low effect of suppressing growth | highest ADC activity | excellent EC50 values | particularly potent antitumor effect | particularly potent antitumor effect |  |  |  |  |  |  |  |  |  |  |  |  |  |  | 
2 | B2 |  |  |  |  |  | slight antitumor effect | slight antitumor effect | significant antitumor effect | tumor volume was significantly reduced | significant change in the body weight was not observed | resulted in G2/M phase arrest | exhibits an effect of suppressing cell growth | exhibits an effect of suppressing cell growth | Significant toxicity due to ADC administration was not observed | Mild anemia | Specific abnormality was not observed | Abnormal platelet count specific to each group was not observed | Significant change in the body weight was not observed | An abnormality in the liver function was found | increase in the while blood cells was observed
